Sequences and labels used below:
B1: TPR t1 (parent)
chain: GACCAAUCUGCCCUCAGAGCUCGAGAACAUCUUCGGAUGCAGAGGAGGCAGGCUUCGGUGGCGCGAUAGCGCCAACGUCCUCAACCUCCAAUGCAUCCCACCACAUGAUGAUGCCUGAAGAGCCUUGGUUUUUUG

Variants of B1 are the subject of this series. In words: polymerase ribozyme fitness, log enrichment relative to wild type (log ratio); higher = more active; in vitro selection for triplet polymerase activity. The procedure, abridged: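 Genotype fitness is the logarithm of its enrichment divided by wild-type enrichment, using inverse-variance-weighted averages of replicates. That logarithm is base 2. Enrichment was measured by Illumina sequencing of input and output libraries from one triplicate in vitro selection round, with frozen incubation at −7 °C, on PCR-built, transcribed mutant libraries of each subunit of a heterodimeric triplet polymerase ribozyme, retaining genotypes with ≥10 input reads and ≥1 read per output.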
Regarding GACCAAUCUGCCCUCAGAGCUCGAGAACAUCUUCGGAUGCAGAGGAGGCAGGCUUCGGUGGCGCGAUAGCGCCAACGUCCACAACCUCCAAUGCAUCCCACCACAUGAUGAGGCCUGAAGAGCCUUGGUUUUUUG, the “polymerase ribozyme fitness (log ratio)” value was -0.661.

For GACCAAUCUGCCCUCAGAGCUCGAGAACAUCUUCGGAUGCAGAGGAGGCAGGCUUCGGUGGCGCGAUAGCGCCAACGUCCACAACCUCCAAUGCAUCCCACCACAUGAUGAAGCCUGAAGAGCCUUGGUUUUUUG, the “polymerase ribozyme fitness (log ratio)” value was determined as 0.19.

Turning to GACCAAUCUGCCCUCAGAGCUCGAGAACAUCUUCGGAUGCAGAGGAGGCAGGCUUCGGUGGCGCGAUAGCGCCAACGUCCACAACCACCAAUGCAUCCCACCACAUGAUGAUGCCUGAAGAGCCUUGGUUUUUUG, the “polymerase ribozyme fitness (log ratio)” value was -1.41.

Turning to GACCAAUCUGCCCUCAGAGCUCGAGAACAUCUUCGGAUGCAGAGGAGGCAGGCUUCGGUGGCGCGAUAGCGCCAACGUCCACAACCUCCAAUGCAUCCCACCACAUGAUGAUGCCUGAAGAGCCUUUGUUUUUUG, the “polymerase ribozyme fitness (log ratio)” value was -2.76.

For GACCAAUCUGCCCUCAGAGCUCGAGAACAUCUUCGGAUGCAGAGGAGGCAGGCUUCGGUGGCGCGAUAGCGCCAACGUCCGCAACCUCCAAUGCAUCCCACCACAUGAUGAAGCCUGAAGAGCCUUGGUUUUUUG, the “polymerase ribozyme fitness (log ratio)” value was -4.16.

As to GACCAAUCUGCCCUCAGAGCUCGAGAACAUCUUCGGAUGCAGAGGAGGCAGGCUUCGGUGGCGCGAUAGCGCCAACGUCCUAAACCUCCAAUACAUCCCACCACAUGAUGAUGCCUGAAGAGCCUUGGUUUUUUG, the “polymerase ribozyme fitness (log ratio)” value is -0.17.

Regarding GACCAAUCUGCCCUCAGAGCUCGAGAACAUCUUCGGAUGCAGAGGAGGCAGGCUUCGGUGGCGCGAUAGCGCCAACGUCCACAACCUCCAAUGCAUCCCACCACACGAUAAUCUCUGAGGAGCCUUGGUUUUUUG, the “polymerase ribozyme fitness (log ratio)” value is -5.29.

Turning to GACCAAUCUGCCCUCAGAGCUCGAGAACAUCUUCGGAUGCAGAGGAGGCAGGCUUCGGUGGCGCGAUAGCGCCAACGUCCUAAACCUCCAAUGCAUCCCACCACAUGAUGAUGCCUGAAUAGCCUUGGUUUUUUG, the “polymerase ribozyme fitness (log ratio)” value worked out at 0.156.

Consider GACCAAUCUGCCCUCAGAGCUCGAGAACAUCUUCGGAUGCAGAGGAGGCAGGCUUCGGUGGCGCGAUAGCGCCAACGUCCUAAACCUCCAAUGCAUCCUACCACAUGAUGAUGCCUGAAGAGCCUUGGUUUUUUG, for which the “polymerase ribozyme fitness (log ratio)” value is -4.04.

In the case of GACCAAUCUGCCCUCAGAGCUCGAGAACAUCUUCGGAUGCAGAGGAGGCAGGCUUCGGUGGCGCGAUAGCGCCAACGUCCACAACCUCCAAUGCAUCCCACCACAUGAUGAUCCCUGAAGAGCCUUGGUGUAUUG, the “polymerase ribozyme fitness (log ratio)” value is -3.31.

Take GACCAAUCUGCCCUCAGAGCUCGAGAACAUCUUCGGAUGCAGAGGAGGCAGGCUUCGGUGGCGCGAUAGCGCCAACGUCCUAAACCUCCAAUGCAUCACACCACAUGAUGAUGUCUGAAGAGCCUUGGUUUUUUG: the “polymerase ribozyme fitness (log ratio)” value is -5.87.

Consider GACCAAUCUGCCCUCAGAGCUCGAGAACAUCUUCGGAUGCAGAGGAGGCAGGCUUCGGUGGCGCGAUAGCGCCAACGUCCCAAACCUCCAAUGCAUCUCACCACAUGAUGAUGCCUGAAGAGCCUUGGUUUUUUG, for which the “polymerase ribozyme fitness (log ratio)” value was -3.03.

In the case of GACCAAUCUGCCCUCAGAGCUCGAGAACAUCUUCGGAUGCAGAGGAGGCAGGCUUCGGUGGCGCGAUAGCGCCAACGUCCUGAACCUCCAAUGCAUCCCACCACAUGAUGAUGCCUGAAGAGCCUUAGUUUUUUG, the “polymerase ribozyme fitness (log ratio)” value was -2.

Take GACCAAUCUGCCCUCAGAGCUCGAGAACAUCUUCGGAUGCAGAGGAGGCAGGCUUCGGUGGCGCGAUAGCGCCAACGUCCACAACCUCCAAUGCAUCCCACCACAUGAUGAUGCCUGAAAAGCCUUGGUUUUUUG: the “polymerase ribozyme fitness (log ratio)” value is -0.668.

As to GACCAAUCUGCCCUCAGAGCUCGAGAACAUCUUCGGAUGCAGAGGAGGCAGGCUUCGGUGGCGCGAUAGCGCCAACGUCCGCAACCUCCAAUGCAUCCCACCACAUGAUGAUGCCUGAAUAGCCUUGGUUUUUUG, the “polymerase ribozyme fitness (log ratio)” value is -3.76.

As to GACCAAUCUGCCCUCAGAGCUCGAGAACAUCUUCGGAUGCAGAGGAGGCAGGCUUCGGUGGCGCGAUAGCGCCAACGUCCUGAACCUGCAAUGCAUCCCACCACAUGAUGAUGCCUGAAGAGCCUUGGUUUUUUG, the “polymerase ribozyme fitness (log ratio)” value was -1.26.

As for GACCAAUCUGCCCUCAGAGCUCGAGAACAUCUUCGGAUGCAGAGGAGGCAGGCUUCGGUGGCGCGAUAGCGCCAACGUCCCCAACCUCCAAUGCAUCCCACCACAUGAUGAUGCCUGAAGAGACUUGGUUUUUUG, the “polymerase ribozyme fitness (log ratio)” value was -0.309.

Regarding GACCAAUCUGCCCUCAGAGCUCGAGAACAUCUUCGGAUGCAGAGGAGGCAGGCUUCGGUGGCGCGAUAGCGCCAACGUCCUGAGCCUCCAAUGCAUCCCACCACAUGAUGAUGCCUGAAGAGCCUUGGUUUUUUG, the “polymerase ribozyme fitness (log ratio)” value is -0.89.

On to GACCAAUCUGCCCUCAGAGCUCGAGAACAUCUUCGGAUGCAGAGGAGGCAGGCUUCGGUGGCGCGAUAGCGCCAACGUCCUAAACCUCCAAUGCAUCCCACCGCAUGAUGAUGCCUGAAGAGCCUUGGUUUUUUG, for which the “polymerase ribozyme fitness (log ratio)” value is -4.08.

As to GACCAAUCUGCCCUCAGAGCUCGAGAACAUCUUCGGAUGCAGAGGAGGCAGGCUUCGGUGGCGCGAUAGCGCCAACGUCCUAAACCUCCAAUGCAUCCCACUACAUGAUGAUGCCUGAAGAGCCUUGGUUUUUUG, the “polymerase ribozyme fitness (log ratio)” value was -1.82.

With GACCAAUCUGCCCUCAGAGCUCGAGAACAUCUUCGGAUGCAGAGGAGGCAGGCUUCGGUGGCGCGAUAGCGCCAACGUCCGCAACCUCCAAUGCAUCCCACCACAUGAUGAUGCCUGUAGAGCCUUGGUUUUUUG, the “polymerase ribozyme fitness (log ratio)” value was -2.58.
